Reference: article PMC6287933 (Methods in enzymology, 2018)

Target: T1, Methylobacterium extorquens (Mex) PqqE (Methylobacterium extorquens, UniProt P71517 1-384)
T1 sequence (looked up): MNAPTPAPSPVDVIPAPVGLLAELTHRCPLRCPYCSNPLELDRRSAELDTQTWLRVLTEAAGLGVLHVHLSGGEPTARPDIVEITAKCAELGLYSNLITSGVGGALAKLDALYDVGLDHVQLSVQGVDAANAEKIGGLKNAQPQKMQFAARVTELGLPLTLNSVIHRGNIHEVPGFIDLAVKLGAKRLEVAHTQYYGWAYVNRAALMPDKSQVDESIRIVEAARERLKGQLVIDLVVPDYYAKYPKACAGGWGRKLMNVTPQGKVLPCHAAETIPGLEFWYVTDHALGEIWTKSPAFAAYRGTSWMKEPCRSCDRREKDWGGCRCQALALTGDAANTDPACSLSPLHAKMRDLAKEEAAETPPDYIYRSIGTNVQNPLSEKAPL
Assay: native MS

B1: Methylobacterium extorquens (Mex) PqqD (domain or fragment, Methylobacterium extorquens AM1, UniProt Q49150 280-372, looked up)
chain: EPTAFSGSDVPRLPRGVRLRFDEVRNKHVLLAPERTFDLDDNAVAVLKLVDGRNTVSQIAQILGQTYDADPAIIEADILPMLAGLAQKRVLER
- stoichiometry N: 1
